Substitutions are numbered along the chain they refer to. In names and notes the source's numbering stands.

For assay [1], the target named is T1, Human proNGF (human, UniProt P01138 19-241).
T1 construct: This is the precursor form with the pro-peptide; also called h-proNGF; the pro-peptide
Put plainly: SPR, Biacore 8K, binder captured on Protein A chip, ligand as analyte. As to the method: (§1) Binding affinity of fusion proteins to human and rat NGF was assessed using Biacore 8K (Cytiva). Briefly, Protein A Sensor Chip (Cytiva) was docked into Biacore 8K, equilibrated for 30′ at RT and then Running Buffer (10 mM HEPES pH7.4 150 mM NaCl 3 mM EDTA and 0.005% Tween20) was applied to the SPR chip surface.
(§2) PetML119var was diluted into running buffer at 6 nM concentration. These were immobilised using 90 sec association at 10 uL/min as capturing step, followed by injection of running buffer to remove any unbound product.
A general note: Surface plasmon resonance follows binding to a sensor surface in real time, without labels.

Another assay deals with T2, Human BDNF (human, UniProt P23560 129-247).
T2 construct: mature; also called hBDNF
T2 sequence (looked up): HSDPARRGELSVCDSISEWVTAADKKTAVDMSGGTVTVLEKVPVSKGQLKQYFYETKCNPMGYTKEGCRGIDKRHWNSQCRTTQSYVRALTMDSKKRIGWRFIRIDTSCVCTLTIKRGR
The description is as above.

The next assay addresses T3, Human NT-4 (human, UniProt P34130 81-210).
T3 construct: mature; also called hNT-4
T3 sequence (looked up): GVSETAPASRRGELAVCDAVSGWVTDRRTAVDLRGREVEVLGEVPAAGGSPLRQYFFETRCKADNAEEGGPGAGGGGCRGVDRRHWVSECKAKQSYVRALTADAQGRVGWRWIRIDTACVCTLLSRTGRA
Described as above.

The target of a further assay is T4, Human NT-3 (human, UniProt P20783 139-257).
T4 construct: mature; also called hNT-3
T4 sequence (looked up): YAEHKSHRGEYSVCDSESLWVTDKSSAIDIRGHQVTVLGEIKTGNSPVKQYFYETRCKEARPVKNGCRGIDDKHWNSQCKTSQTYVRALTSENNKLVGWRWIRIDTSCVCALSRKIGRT
The assay is described as above.

Assay [2] deals with T1, Human proNGF. The assay is described as above. This is another data set of the same source.
The target in assay [3] is T5, Human NGF (human, UniProt P01138 122-241). Put plainly: cell-based or functional assay.
T5 sequence (P01138 122-241): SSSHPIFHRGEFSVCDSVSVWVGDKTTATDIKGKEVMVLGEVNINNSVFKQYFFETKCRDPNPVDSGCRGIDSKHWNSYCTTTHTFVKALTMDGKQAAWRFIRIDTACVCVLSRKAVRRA
Assay [4] deals with T5, Human NGF. Put plainly: SPR, Biacore 8K, binder captured on Protein A chip, ligand as analyte. As to the method:
as §1, §2

A further assay deals with Human NGF (human) (UniProt P01138). Put plainly: cell-based or functional assay.
Sequence of Human NGF (human) (P01138 122-241): as above
Assay [5] deals with NGF (species not stated) (Homo sapiens (Human)) (UniProt P01138). Put plainly: cell-based or functional assay.

T1 sequence (P01138 19-241): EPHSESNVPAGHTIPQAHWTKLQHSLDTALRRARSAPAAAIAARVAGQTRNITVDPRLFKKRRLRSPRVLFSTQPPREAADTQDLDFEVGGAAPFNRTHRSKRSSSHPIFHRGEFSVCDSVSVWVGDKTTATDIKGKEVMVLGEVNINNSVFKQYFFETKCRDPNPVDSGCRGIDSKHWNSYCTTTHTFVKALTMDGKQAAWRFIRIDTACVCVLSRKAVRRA

B1: PetML119 (Canine p75NTR ECD-canine IgGB wt Fc protein fusion) (Fc fusion)
chain: KEACPTGLYTHSGECCKACNLGEGVAQPCGANQTVCEPCLDSVTFSDVVSATEPCKPCTECVGLQSMSAPCVEADDAVCRCAYGYYQDETTGRCEACRVCEAGSGLVFSCQDRQNTVCEECPDGTYSDEANHVDPCLPCTVCEDTERQLRECTRWADAECEEIPGGGGRENGRVPRPPDCPKCPAPEMLGGPSVFIFPPKPKDTLLIARTPEVTCVVVDLDPEDPEVQISWFVDGKQMQTAKTQPREEQFNGTYRVVSVLPIGHQDWLKGKQFTCKVNNKALPSPIERTISKARGQAHQPSVYVLPPSREELSKNTVSLTCLIKDFFPPDIDVEWQSNGQQEPESKYRTTPPQLDEDGSYFLYSKLSVDKSRWQRGDTFICAVMHEALHNHYTQKSLSHSPGK
notes: Made in CHO cells; also called PetML119wt; p75NTR-Fc
For the molecule B1, the “fold higher affinity for proNGF than for mature NGF” value with Human proNGF [1] was 171 ×. The Kd – broadly, the free concentration of one partner at which half of the binding sites on the other are occupied at equilibrium, for simple one-to-one binding – with Human BDNF turned out to be 14.4 nM; in the assay with Human NT-4, 7.2 nM; in the assay with Human NT-3 it was 4.9 nM; with Human proNGF [2], 0.0019 nM.

B2: PetML119-S109Y (Canine p75NTR ECD S109Y-canine IgGB wt Fc) (Fc fusion)
chain: KEACPTGLYTHSGECCKACNLGEGVAQPCGANQTVCEPCLDSVTFSDVVSATEPCKPCTECVGLQSMSAPCVEADDAVCRCAYGYYQDETTGRCEACRVCEAGSGLVFYCQDRQNTVCEECPDGTYSDEANHVDPCLPCTVCEDTERQLRECTRWADAECEEIPGRGGGGRENGRVPRPPDCPKCPAPEMLGGPSVFIFPPKPKDTLLIARTPEVTCVVVDLDPEDPEVQISWFVDGKQMQTAKTQPREEQFNGTYRVVSVLPIGHQDWLKGKQFTCKVNNKALPSPIERTISKARGQAHQPSVYVLPPSREELSKNTVSLTCLIKDFFPPDIDVEWQSNGQQEPESKYRTTPPQLDEDGSYFLYSKLSVDKSRWQRGDTFICAVMHEALHNHYTQKSLSHSPGK
notes: Signal peptide left out as for PetML119; If the listing carries them, the end of the range is 426
On to B2, for which, in the assay with Human NGF [3], the “IC50 (nM), inhibition of NGF-dependent TF-1 cell proliferation” value amounted to 0.17 nM. For the same molecule, in the assay with Human NGF [3], the “ICMAX (%), inhibition of NGF-dependent TF-1 cell proliferation” value was determined as 88.5%. Further, the equilibrium dissociation constant (Kd) with Human BDNF stood at 16.7 nM; with Human NT-4, 12 nM; in the assay with Human NT-3, 8.3 nM.

B3: PetML119-D134L (Canine p75NTR ECD D134L-canine IgGB wt Fc) (Fc fusion)
chain: B2 chain with Y109S, D134L
notes: Signal peptide left out as for PetML119; also called D134L mutant
Turning to B3, the “fold reduced affinity relative to PetML119wt” value with Human NGF [4] was 20 ×. Further, the Kd turned out to be 26.7 nM in the assay with Human BDNF, 101 nM in the assay with Human NT-4 and 8.3 nM with Human NT-3.

B4: PetML119-S109H (Canine p75NTR ECD S109H-canine IgGB wt Fc) (Fc fusion)
chain: B2 chain with Y109H
On to B4, for which the “IC50 (nM), inhibition of NGF-dependent TF-1 cell proliferation” value with Human NGF [3] was 2.15 nM. In the assay with Human NGF [3], the “ICMAX (%), inhibition of NGF-dependent TF-1 cell proliferation” value is 93.5%. The Kd with Human BDNF amounted to 16.2 nM; in the assay with Human NT-4, 9.1 nM; with Human NT-3 it was 7.9 nM.

B5: PetML119-V133R (Canine p75NTR ECD V133R-canine IgGB wt Fc) (Fc fusion)
chain: B2 chain with Y109S, V133R
notes: Signal peptide left out as for PetML119
Turning to B5, the Kd with Human BDNF turned out to be 42.3 nM; with Human NT-4, 8.3 nM; in the assay with Human NT-3 it was 7.2 nM.

B6: PetML119-E75T (Canine p75NTR ECD E75T-canine IgGB wt Fc) (Fc fusion)
chain: B2 chain with D75T, Y109S
notes: The signal peptide (first 19 residues) is left out as for PetML119
For B6, the “fold reduced affinity relative to PetML119wt” value with Human NGF [4] came out at 40 ×. For the same molecule, the dissociation constant (Kd) with Human BDNF was determined as 15.4 nM; in the assay with Human NT-4, 98.5 nM; in the assay with Human NT-3 it was 5.1 nM.

B7: Bedinvetmab (antibody, V domains shown)
VH: EVQLVESGGDLVKPGGSLRLSCVASGFTFSSHGMHWVRQSPGKGLQWVAVINSGGSSTYYTDAVKGRFTISRDNAKNTVYLQMNSLRAEDTAMYYCAKESVGGWEQLVGPHFDYWGQGTLVIVSS
VL: QSVLTQPTSVSGSLGQRVTISCSGSTNNIGILGASWYQLFPGKAPKLLVYGNGNRPSGVPDRFSGADSGDSVTLTITGLQAEDEADYYCQSFDTTLGAHVFGGGTHLTVL
As for B7, in the assay with Human NGF (human), the IC50 (nM), inhibition of NGF-dependent TF-1 cell proliferation was 0.89 nM; the IC Max, inhibition of NGF-dependent TF-1 cell proliferation was found to be 100; the ICMAX (%), inhibition of NGF-dependent TF-1 cell proliferation was 96.8%. In assay [5], this molecule had a Bottom (%), best-fit, PathHunter TrkA activation assay with NGF at 2 nM of 5.35%; an IC50 (nM), PathHunter TrkA activation assay with NGF at 2 nM of 4.24 nM; a Top (%), best-fit, PathHunter TrkA activation assay with NGF at 2 nM of 123%; a TrkA inhibition, PathHunter TrkA activation assay with NGF at 2 nM of 100%. For the same molecule, the dissociation constant Kd with Human proNGF [2] was determined as 0.0018 nM.
